# Reference: the Human Domainome abundance scans (Beltran et al. 2025)
# ± gives the uncertainty stated by the source.
# B1: Death-inducer obliterator 1, residues 263 to 321; numbered along this chain, Q9BTC0 (parent)
# chain: GYDPNALYCICRQPHNNRFMICCDRCEEWFHGDCVGISEARGRLLERNGEDYICPNCTI
# Variants of: B1
# Assay: abundance fitness (aPCA) (normalised: wild type 0, dead -1); higher = more abundant; growth selection in yeast, the domain comes from the species named
# Conditions: Homo sapiens
row,Variant,abundance fitness
1,GYSPNALYCICRQPHNNRFMICCDRCEEWFHGDCVGISEARGRLLERNGEDYICPNCTI,0.174 ± 0.099
2,GYTPNALYCICRQPHNNRFMICCDRCEEWFHGDCVGISEARGRLLERNGEDYICPNCTI,0.023 ± 0.12
3,GYVPNALYCICRQPHNNRFMICCDRCEEWFHGDCVGISEARGRLLERNGEDYICPNCTI,-0.177 ± 0.078
4,GYWPNALYCICRQPHNNRFMICCDRCEEWFHGDCVGISEARGRLLERNGEDYICPNCTI,-0.163 ± 0.11
5,GYYPNALYCICRQPHNNRFMICCDRCEEWFHGDCVGISEARGRLLERNGEDYICPNCTI,0.002 ± 0.069
6,GYDANALYCICRQPHNNRFMICCDRCEEWFHGDCVGISEARGRLLERNGEDYICPNCTI,-0.075 ± 0.083
7,GYDCNALYCICRQPHNNRFMICCDRCEEWFHGDCVGISEARGRLLERNGEDYICPNCTI,0.063 ± 0.084
8,GYDDNALYCICRQPHNNRFMICCDRCEEWFHGDCVGISEARGRLLERNGEDYICPNCTI,0.354 ± 0.26
9,GYDENALYCICRQPHNNRFMICCDRCEEWFHGDCVGISEARGRLLERNGEDYICPNCTI,-0.213 ± 0.23
10,GYDFNALYCICRQPHNNRFMICCDRCEEWFHGDCVGISEARGRLLERNGEDYICPNCTI,0.264 ± 0.17
11,GYDGNALYCICRQPHNNRFMICCDRCEEWFHGDCVGISEARGRLLERNGEDYICPNCTI,-0.122 ± 0.067
12,GYDHNALYCICRQPHNNRFMICCDRCEEWFHGDCVGISEARGRLLERNGEDYICPNCTI,-0.062 ± 0.25
13,GYDINALYCICRQPHNNRFMICCDRCEEWFHGDCVGISEARGRLLERNGEDYICPNCTI,-0.14 ± 0.17
14,GYDKNALYCICRQPHNNRFMICCDRCEEWFHGDCVGISEARGRLLERNGEDYICPNCTI,0.297 ± 0.22
15,GYDLNALYCICRQPHNNRFMICCDRCEEWFHGDCVGISEARGRLLERNGEDYICPNCTI,0.036 ± 0.079
16,GYDMNALYCICRQPHNNRFMICCDRCEEWFHGDCVGISEARGRLLERNGEDYICPNCTI,0.021 ± 0.059
17,GYDNNALYCICRQPHNNRFMICCDRCEEWFHGDCVGISEARGRLLERNGEDYICPNCTI,-0.036 ± 0.12
18,GYDQNALYCICRQPHNNRFMICCDRCEEWFHGDCVGISEARGRLLERNGEDYICPNCTI,-0.043 ± 0.35
19,GYDRNALYCICRQPHNNRFMICCDRCEEWFHGDCVGISEARGRLLERNGEDYICPNCTI,0.076 ± 0.062
20,GYDSNALYCICRQPHNNRFMICCDRCEEWFHGDCVGISEARGRLLERNGEDYICPNCTI,0.091 ± 0.078
21,GYDTNALYCICRQPHNNRFMICCDRCEEWFHGDCVGISEARGRLLERNGEDYICPNCTI,-0.147 ± 0.074
22,GYDVNALYCICRQPHNNRFMICCDRCEEWFHGDCVGISEARGRLLERNGEDYICPNCTI,-0.183 ± 0.094
23,GYDWNALYCICRQPHNNRFMICCDRCEEWFHGDCVGISEARGRLLERNGEDYICPNCTI,-0.086 ± 0.085

row,Variant,abundance fitness
1,GYDYNALYCICRQPHNNRFMICCDRCEEWFHGDCVGISEARGRLLERNGEDYICPNCTI,-0.258 ± 0.19
2,GYDPAALYCICRQPHNNRFMICCDRCEEWFHGDCVGISEARGRLLERNGEDYICPNCTI,-0.413 ± 0.092
3,GYDPCALYCICRQPHNNRFMICCDRCEEWFHGDCVGISEARGRLLERNGEDYICPNCTI,-0.497 ± 0.11
4,GYDPDALYCICRQPHNNRFMICCDRCEEWFHGDCVGISEARGRLLERNGEDYICPNCTI,0.004 ± 0.072
5,GYDPEALYCICRQPHNNRFMICCDRCEEWFHGDCVGISEARGRLLERNGEDYICPNCTI,-0.184 ± 0.1
6,GYDPFALYCICRQPHNNRFMICCDRCEEWFHGDCVGISEARGRLLERNGEDYICPNCTI,-0.189 ± 0.13
7,GYDPGALYCICRQPHNNRFMICCDRCEEWFHGDCVGISEARGRLLERNGEDYICPNCTI,-0.273 ± 0.1
8,GYDPHALYCICRQPHNNRFMICCDRCEEWFHGDCVGISEARGRLLERNGEDYICPNCTI,-0.433 ± 0.11
9,GYDPIALYCICRQPHNNRFMICCDRCEEWFHGDCVGISEARGRLLERNGEDYICPNCTI,-0.242 ± 0.11
10,GYDPKALYCICRQPHNNRFMICCDRCEEWFHGDCVGISEARGRLLERNGEDYICPNCTI,-0.23 ± 0.11
11,GYDPLALYCICRQPHNNRFMICCDRCEEWFHGDCVGISEARGRLLERNGEDYICPNCTI,-0.331 ± 0.084
12,GYDPMALYCICRQPHNNRFMICCDRCEEWFHGDCVGISEARGRLLERNGEDYICPNCTI,-0.113 ± 0.093
13,GYDPPALYCICRQPHNNRFMICCDRCEEWFHGDCVGISEARGRLLERNGEDYICPNCTI,-0.796 ± 0.2
14,GYDPQALYCICRQPHNNRFMICCDRCEEWFHGDCVGISEARGRLLERNGEDYICPNCTI,-0.112 ± 0.085
15,GYDPRALYCICRQPHNNRFMICCDRCEEWFHGDCVGISEARGRLLERNGEDYICPNCTI,-0.211 ± 0.063
16,GYDPSALYCICRQPHNNRFMICCDRCEEWFHGDCVGISEARGRLLERNGEDYICPNCTI,-0.259 ± 0.069
17,GYDPTALYCICRQPHNNRFMICCDRCEEWFHGDCVGISEARGRLLERNGEDYICPNCTI,-0.319 ± 0.082
18,GYDPVALYCICRQPHNNRFMICCDRCEEWFHGDCVGISEARGRLLERNGEDYICPNCTI,-0.186 ± 0.13
19,GYDPWALYCICRQPHNNRFMICCDRCEEWFHGDCVGISEARGRLLERNGEDYICPNCTI,-0.793 ± 0.32
20,GYDPYALYCICRQPHNNRFMICCDRCEEWFHGDCVGISEARGRLLERNGEDYICPNCTI,-0.623 ± 0.16
21,GYDPNDLYCICRQPHNNRFMICCDRCEEWFHGDCVGISEARGRLLERNGEDYICPNCTI,-0.434 ± 0.12
22,GYDPNELYCICRQPHNNRFMICCDRCEEWFHGDCVGISEARGRLLERNGEDYICPNCTI,-0.328 ± 0.21
